Data published in PMC8809517, “Cofactor-independent RNA editing by a synthetic S-type PPR protein”.
Where a chain is given by its changes, count along the chain named.

Columns and labels:
Assay in all cases: high-throughput RNA pulldown from lysate on Ni-NTA beads; HRP: 50 mM Tris pH 8, 150 mM NaCl, 1 mM beta-mercaptoethanol, 50 ug/ml BSA, 3 ug/ml yeast RNA, 0.5% heparin; ITC and FP: Tris pH 8, 200 mM KCl, 5% glycerol; MST: 50 mM Tris pH 8, 200 mM NaCl, 1 mM DTT, BSA, heparin, 0.05% Tween 20
Conditions in all cases: tags: N-terminal His-eGFP
[1] = molecular target: T1, GFP-9S library array, motif 4 ND N98A;D124V (synthetic construct, N98A;D124V)
T1 chain: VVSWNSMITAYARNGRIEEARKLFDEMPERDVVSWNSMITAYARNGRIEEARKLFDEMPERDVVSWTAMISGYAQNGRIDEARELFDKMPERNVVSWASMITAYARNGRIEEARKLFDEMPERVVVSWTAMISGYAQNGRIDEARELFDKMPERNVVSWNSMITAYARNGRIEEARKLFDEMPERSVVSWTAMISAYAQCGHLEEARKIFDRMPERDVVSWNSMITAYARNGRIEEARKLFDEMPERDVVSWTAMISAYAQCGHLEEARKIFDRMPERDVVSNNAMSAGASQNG

[2] = molecular target: T2, GFP-9S library array, motif 4 ND N98C;D124Q (synthetic construct, N98C;D124Q)
T2 chain: T1 chain with A98C, V124Q

[3] = molecular target: T3, GFP-9S library array, motif 4 ND N98Q;D124L (synthetic construct, N98Q;D124L)
T3 chain: T1 chain with A98Q, V124L

[4] = molecular target: T4, GFP-9S library array, motif 4 ND N98F;D124K (synthetic construct, N98F;D124K)
T4 chain: T1 chain with A98F, V124K

[5] = molecular target: T5, GFP-9S library array, motif 4 ND N98T;D124N (synthetic construct, N98T;D124N)
T5 chain: T1 chain with A98T, V124N

Binder | Kd ([1]; label: 5' IRDye 800CW) | Kd ([2]; label: 5' IRDye 800CW) | Kd ([3]; label: 5' IRDye 800CW) | Kd ([4]; label: 5' IRDye 800CW) | Kd ([5]; label: 5' IRDye 800CW) | Kd ([1]; label: 5' Cy5) | Kd ([2]; label: 5' Cy5) | Kd ([3]; label: 5' Cy5) | Kd ([4]; label: 5' Cy5) | Kd ([5]; label: 5' Cy5)
AUUAUACGUGA (ssRNA) [IR-rpoA-U] | 152 nM | 143 nM | 261 nM | 667 nM | 53.3 nM |  |  |  |  | 
AUUACACGUGA (ssRNA) [Cy5-rpoA] |  |  |  |  |  | 91.2 nM | 127 nM | 122 nM | 160 nM | 59.8 nM
AUUAGACGUGA (ssRNA) [Cy5-rpoA-G] |  |  |  |  |  | 124 nM | 150 nM | 84.1 nM | 63.6 nM | 59 nM
AUUAAACGUGA (ssRNA) [IR-rpoA-A] | 497 nM | 177 nM | 155 nM | 121 nM | 8.35 nM |  |  |  |  | 
